Data taken from US20110123544A1 (published 2011).

T1: recombinant human interleukin 12 (p40/p35 heterodimer) (human, UniProt P29460 23-328; P29459 23-219)
T1 chain 1: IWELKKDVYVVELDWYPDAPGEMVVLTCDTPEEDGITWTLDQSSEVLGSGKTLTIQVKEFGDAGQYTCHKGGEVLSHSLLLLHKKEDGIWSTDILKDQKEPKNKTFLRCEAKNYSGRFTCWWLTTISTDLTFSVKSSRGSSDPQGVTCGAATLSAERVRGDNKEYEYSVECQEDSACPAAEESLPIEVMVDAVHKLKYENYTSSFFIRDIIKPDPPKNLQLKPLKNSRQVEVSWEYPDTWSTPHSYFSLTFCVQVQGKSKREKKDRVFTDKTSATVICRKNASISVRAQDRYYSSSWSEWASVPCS
T1 chain 2: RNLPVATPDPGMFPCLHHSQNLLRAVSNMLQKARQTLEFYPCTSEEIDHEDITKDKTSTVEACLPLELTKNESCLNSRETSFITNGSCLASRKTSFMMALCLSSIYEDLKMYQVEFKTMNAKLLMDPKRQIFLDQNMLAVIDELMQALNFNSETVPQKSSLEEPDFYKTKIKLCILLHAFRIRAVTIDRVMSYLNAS

T2: recombinant human IL-12 (rhIL-12) (human, UniProt P29459 23-219; P29460 23-328)
T2 chain 1: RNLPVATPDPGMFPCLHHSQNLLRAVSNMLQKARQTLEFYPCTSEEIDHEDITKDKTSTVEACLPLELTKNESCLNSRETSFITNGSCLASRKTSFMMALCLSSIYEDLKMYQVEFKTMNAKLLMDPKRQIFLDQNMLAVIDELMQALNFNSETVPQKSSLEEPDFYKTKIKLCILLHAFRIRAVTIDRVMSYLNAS
T2 chain 2: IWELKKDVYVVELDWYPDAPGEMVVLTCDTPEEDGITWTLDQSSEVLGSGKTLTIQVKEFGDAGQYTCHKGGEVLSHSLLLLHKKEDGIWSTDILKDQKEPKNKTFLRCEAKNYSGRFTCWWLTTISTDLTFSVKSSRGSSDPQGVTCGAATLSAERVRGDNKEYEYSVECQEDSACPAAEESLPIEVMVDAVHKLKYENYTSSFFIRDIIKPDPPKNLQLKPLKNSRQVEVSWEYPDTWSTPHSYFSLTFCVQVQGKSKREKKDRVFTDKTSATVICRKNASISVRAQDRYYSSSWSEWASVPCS

T3: recombinant human IL-12 (rhIL-12) (human, UniProt P29459 23-219; P29460 23-328)
T3 construct: disulfide-linked p35/p40 heterodimer (p70); also called rec. human IL12; IL-12 p70
T3 sequence (looked up) 1: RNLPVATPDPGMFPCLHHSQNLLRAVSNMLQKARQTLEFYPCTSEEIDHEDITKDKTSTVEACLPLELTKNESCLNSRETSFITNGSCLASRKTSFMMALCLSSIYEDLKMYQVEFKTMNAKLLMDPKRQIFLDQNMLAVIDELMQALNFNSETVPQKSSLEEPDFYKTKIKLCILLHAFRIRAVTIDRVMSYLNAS
T3 sequence (looked up) 2: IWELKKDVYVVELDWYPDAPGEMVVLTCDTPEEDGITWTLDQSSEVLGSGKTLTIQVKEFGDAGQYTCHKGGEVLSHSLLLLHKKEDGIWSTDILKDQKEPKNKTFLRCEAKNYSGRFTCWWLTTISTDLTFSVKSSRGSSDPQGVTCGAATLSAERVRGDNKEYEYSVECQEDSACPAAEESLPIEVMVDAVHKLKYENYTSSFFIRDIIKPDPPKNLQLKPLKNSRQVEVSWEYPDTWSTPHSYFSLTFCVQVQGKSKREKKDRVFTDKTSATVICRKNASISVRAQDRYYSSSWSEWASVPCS

B1: 99-H4 (scFv, V domains shown)
VH: QVQLVQSGGGVVQPGRSLRLSCAASGFTFSSYGMHWVRQAPGKGLEWVAFIRYDGSNKYYADSVKGRFTISRDNSKNTLYLQMKSLRAEDTAVYYCKTHGSHDNWGQGTMVTVSS
VL: SYVLTQPPSVSGTPGQRVTISCSGGRSNIGSNTVKWYQQLPGTAPKLLIYGNDQRPSGVPDRFSGSKSGTSASLAITGVQAEDEADYYCQSYDSRFTGSRVFGTGTKVTVLG

Biological target: T1, recombinant human interleukin 12 …
Assay: BIAcore

FIRYDGSNKFYADSVKG [Y61 H58 F] and FIRYDGSNKLYADSVKG [Y61 H58 L] are within 1.5-fold of each other in koff: 0.000794 s⁻¹ for the first, 0.00073 s⁻¹ for the second.

Going from FIRYDGSYKYYADSVKG [Y61 H56 Y] to FIRYDFSNKYYADSVKG [Y61 H54 F], the koff rises from 0.00039 s⁻¹ to 0.000663 s⁻¹ (1.7-fold).

Compared with FIRYDGSMKYYADSVKG [Y61 H56 M], FIRYDGSSKYYADSVKG [Y61 H56 S] is 1.6-fold higher in koff: 0.000383 s⁻¹ for the first, 0.000624 s⁻¹ for the second.

First: FIRYDGSNKPYADSVKG [Y61 H58 P]
Second: FIRYDGSNKEYADSVKG [Y61 H58 E]
The koff of the first is 1.5-fold higher: 0.000628 s⁻¹ for the first, 0.000415 s⁻¹ for the second.

Compared with FIRYDGSPKYYADSVKG [Y61 H56 P], FIRYDGSNKVYADSVKG [Y61 H58 V] is 1.8-fold higher in koff: 0.000299 s⁻¹ for the first, 0.000524 s⁻¹ for the second.

First: FIRYDGSNKSYADSVKG [Y61 H58 S]
Second: FIRYDGSLKYYADSVKG [Y61 H56 L]
The koff of the first is 3.6-fold higher: 0.000941 s⁻¹ for the first, 0.000264 s⁻¹ for the second.

Compared with FIRYDGSGKYYADSVKG [Y61 H56 G], FIRYDGSNKIYADSVKG [Y61 H58 I] is 2.4-fold higher in koff: 0.000272 s⁻¹ for the first, 0.000657 s⁻¹ for the second.

First: FIRYDGSHKYYADSVKG [Y61 H56 H]
Second: FIRYDGSNKNYADSVKG [Y61 H58 N]
The koff of the first is 2-fold lower: 0.00042 s⁻¹ for the first, 0.000831 s⁻¹ for the second.

FIRYDGSFKYYADSVKG [Y61 H56 F] and FIRYDGSTKYYADSVKG [Y61 H56 T] are within 1.5-fold of each other in koff: 0.000345 s⁻¹ for the first, 0.000235 s⁻¹ for the second.

In the case of FIRYDGSIKYYADSVKG [Y61 H56 I], the koff is reported as 0.000169 s⁻¹.

Biological target: T2, recombinant human IL-12 (rhIL-12)
Assay: BIAcore

SGGRSNIGSKTVK [Y61 L31 K] and SGGRSNIGSQTVK [Y61 L31 Q] are within 1.5-fold of each other in koff: 0.000331 s⁻¹ for the first, 0.000292 s⁻¹ for the second.

Work on SGGRSNIGSSTVK [Y61 L31 S] yielded a koff of 0.000392 s⁻¹.

Biological target: T2, recombinant human IL-12 (rhIL-12)
Assay: BIAcore
Remark: another data set of the same source

Compared with HGSHDI [Y61 H102 I], HGSHDA [Y61 H102 A] is 2.6-fold lower in koff: 0.000996 s⁻¹ for the first, 0.000382 s⁻¹ for the second.

Compared with HGSHDT [Y61 H102 T], HGSHNN [Y61 H101 N] is 6.7-fold higher in koff: 0.000333 s⁻¹ for the first, 0.00223 s⁻¹ for the second.

First: HGSHDH [Y61 H102 H]
Second: HGSHDK [Y61 H102 K]
The koff of the first is 2.2-fold lower: 0.00018 s⁻¹ for the first, 0.000405 s⁻¹ for the second.

First: HGSHVN [Y61 H101 V]
Second: HGSHAN [Y61 H101 A]
The koff of the first is 1.5-fold higher: 0.00163 s⁻¹ for the first, 0.00106 s⁻¹ for the second.

Going from HGSHDS [Y61 H102 S] to HGSHDL [Y61 H102 L], the koff rises from 0.000325 s⁻¹ to 0.000956 s⁻¹ (2.9-fold).

Compared with HGSHDP [Y61 H102 P], HGSHGN [Y61 H101 G] is 2.1-fold higher in koff: 0.00181 s⁻¹ for the first, 0.00375 s⁻¹ for the second.

Compared with HGSHDW [Y61 H102 W], HGSHDR [Y61 H102 R] is 2.4-fold higher in koff: 0.000235 s⁻¹ for the first, 0.000575 s⁻¹ for the second.

First: HGSHDG [Y61 H102 G]
Second: HGSHIN [Y61 H101 I]
The koff of the first is 2.3-fold lower: 0.000692 s⁻¹ for the first, 0.00162 s⁻¹ for the second.

Binder HGSHDF [Y61 H102 F] has a koff of 0.000318 s⁻¹.

Biological target: T3, recombinant human IL-12 (rhIL-12)
Assay: BIAcore (SPR) off-rate on IL-12 chip
Description: The system utilizes the optical properties of SPR to detect alterations in protein concentrations within a dextran biosensor matrix. Proteins are covalently bound to the dextran matrix at known concentrations. […] To determine the off rate (koff), on rate (kₒₙ), association rate (Ka) and dissociation rate (Kd) constants, BIAcore kinetic evaluation software (version 2.1) was used.

B1 showed a koff of 0.0048 s⁻¹.

Biological target: T2, recombinant human IL-12 (rhIL-12)
Assay: BIAcore
Remark: another data set of the same source

HNDQRPS [Y61 L50 H] and GNDPRPS [Y61 L53 P] are within 1.5-fold of each other in koff: 0.000761 s⁻¹ for the first, 0.000974 s⁻¹ for the second.

Going from QNDQRPS [Y61 L50 Q] to GNDARPS [Y61 L53 A], the koff rises from 0.000348 s⁻¹ to 0.000554 s⁻¹ (1.6-fold).

GNDYRPS [Y61 L53 Y] and LNDQRPS [Y61 L50 L] are within 1.5-fold of each other in koff: 0.000733 s⁻¹ for the first, 0.000616 s⁻¹ for the second.

Compared with KNDQRPS [Y61 L50 K], ANDQRPS [Y61 L50 A] is 6.5-fold lower in koff: 0.00243 s⁻¹ for the first, 0.000372 s⁻¹ for the second.

Compared with VNDQRPS [Y61 L50 V], GNDTRPS [Y61 L53 T] is 2.2-fold higher in koff: 0.000385 s⁻¹ for the first, 0.000834 s⁻¹ for the second.

Compared with NNDQRPS [Y61 L50 N], GNDSRPS [Y61 L53 S] is 2.8-fold higher in koff: 0.000305 s⁻¹ for the first, 0.000866 s⁻¹ for the second.

First: PNDQRPS [Y61 L50 P]
Second: MNDQRPS [Y61 L50 M]
The koff of the first is 2.3-fold lower: 0.00041 s⁻¹ for the first, 0.000953 s⁻¹ for the second.

Going from GNDIRPS [Y61 L53 I] to TNDQRPS [Y61 L50 T], the koff falls from 0.000855 s⁻¹ to 0.000272 s⁻¹ (3.1-fold).

Compared with SNDQRPS [Y61 L50 S], RNDQRPS [Y61 L50 R] is 1.6-fold higher in koff: 0.000286 s⁻¹ for the first, 0.000444 s⁻¹ for the second.

GNDRRPS [Y61 L53 R] and ENDQRPS [Y61 L50 E] are within 1.5-fold of each other in koff: 0.000614 s⁻¹ for the first, 0.000617 s⁻¹ for the second.

Going from CNDQRPS [Y61 L50 C] to INDQRPS [Y61 L50 I], the koff rises from 0.000467 s⁻¹ to 0.0012 s⁻¹ (2.6-fold).

DNDQRPS [Y61 L50 D] and WNDQRPS [Y61 L50 W] are within 1.5-fold of each other in koff: 0.000348 s⁻¹ for the first, 0.000382 s⁻¹ for the second.

FNDQRPS [Y61 L50 F] gave a koff of 0.0348 s⁻¹.
